This note sets out measurements from paper PMC5717197, “Mechanistic insight into TRIP13-catalyzed Mad2 structural transition and spindle checkpoint silencing” (Nature Communications, 2017).

The target in data set [1] is T1, His6-Mad2 (containing the C79S and C106S mutations) (human, UniProt Q13257 1-205, C79S | C106S).
T1 construct: Mad2, human; C79S and C106S to avoid disulfide formation in vitro; The His6 tag was not cleaved; also called C-Mad2; source: E. coli BL21 (DE3), purified (Ni-NTA, Resource Q, Superdex 200 Increase); not shown: His6, N-terminal, kept
T1 sequence (Q13257 whole entry C79S/C106S): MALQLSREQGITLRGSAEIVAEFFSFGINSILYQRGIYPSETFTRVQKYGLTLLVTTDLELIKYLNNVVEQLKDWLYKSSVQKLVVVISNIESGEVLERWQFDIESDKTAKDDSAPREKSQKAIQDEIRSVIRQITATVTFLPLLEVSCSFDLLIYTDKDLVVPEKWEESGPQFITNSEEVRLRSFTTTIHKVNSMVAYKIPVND
As to the kind of experiment: pull-down; Mad2 dissociation assay: MBP1 or Cdc20N coupled to SulfoLink resin, loaded with His6-Mad2 (0.5 mg/ml), washed, then TRIP13 and ΔN35-p31comet with 1 mM ATP for 30-60 min; Reaction Buffer (25 mM Tris pH 7.5, 200 mM NaCl, 10 mM MgCl2, 1 mM DTT, 5% glycerol, 0.05% Tween), room temperature; bound proteins by SDS-PAGE and Coomassie. The note with it: both partners purified.

Data set [2] concerns the molecule itself. Description: SEC; gel filtration column in the presence of ATP.

Positions count from the first letter of the chain named.

B1: MBP1 peptide (peptide)
peptide: SWYSYPPPQRAVC
notes: Coupled to SulfoLink Coupling Resin in the bead assays; source: synthetic peptide (Protein Chemistry Technology Core, UTSW)
Take B1: in data set [1], the binding result is given as “binds”.

B2: Cdc20N-His6 (residues 1-170 of human Cdc20) (domain or fragment, UniProt Q12834 1-170, looked up)
chain: MAQFAFESDLHSLLQLDAPIPNAPPARWQRKAKEAAGPAPSPMRAANRSHSAGRTPGRTPGKSSSKVQTTPSKPGGDRYIPHRSAAQMEVASFLLSKENQPENSQTPTKKEHQKAWALNLNGFDVEEAKILRLSGKPQNAPEGYQNRLKVLYSQKATPGSSRKTCRYIPS
notes: Cdc20, human, residues 1-170; Coupled to SulfoLink Coupling Resin in the bead assays; also called Cdc20 N-terminal 170-residue fragment; source: E. coli BL21 (DE3), purified from 8 M urea (Ni-NTA), dialysed
With B2, the binding result in data set [1] is “binds”.

B3: TRIP13 wild type (enzyme, human, UniProt Q15645 1-432, looked up)
chain: MDEAVGDLKQALPCVAESPTVHVEVHQRGSSTAKKEDINLSVRKLLNRHNIVFGDYTWTEFDEPFLTRNVQSVSIIDTELKVKDSQPIDLSACTVALHIFQLNEDGPSSENLEEETENIIAANHWVLPAAEFHGLWDSLVYDVEVKSHLLDYVMTTLLFSDKNVNSNLITWNRVVLLHGPPGTGKTSLCKALAQKLTIRLSSRYRYGQLIEINSHSLFSKWFSESGKLVTKMFQKIQDLIDDKDALVFVLIDEVESLTAARNACRAGTEPSDAIRVVNAVLTQIDQIKRHSNVVILTTSNITEKIDVAFVDRADIKQYIGPPSAAAIFKIYLSCLEELMKCQIIYPRQQLLTLRELEMIGFIENNVSKLSLLLNDISRKSEGLSGRVLRKLPFLAHALYVQAPTVTIEGFLQALSLAVDKQFEERKKLAAYI
notes: TRIP13, human; its own AUC and gel filtration show no discrete oligomer; also called TRIP13 WT; source: E. coli BL21 (DE3), purified (Ni-NTA, TEV, Resource Q, Superdex 200); not shown: His6, N-terminal, cleaved
For B3, the binding result in data set [2] is “binds”.

B4: TRIP13 G320A (enzyme, human, UniProt Q15645 1-432, looked up)
chain: B3 chain with G320A
notes: TRIP13, human; source: E. coli BL21 (DE3), purified (Ni-NTA, TEV, Resource Q, Superdex 200); not shown: His6, N-terminal, cleaved
In the case of B4, in data set [2], the binding result is “binds”.
